Measurements as given in article PMC7445300.

Molecular target: GST-DNMT1-N (UniProt P26358)
Experiment: pull-down; GST-tagged proteins on Glutathione Sepharose beads incubated with acid-extracted core histones from HEK293T cells transfected with FLAG-H3 or FLAG-H2B and UHRF1 (S phase); 25 mM Tris-HCl pH 8.0, 150 mM NaCl, 1% NP-40, 2 mM EDTA, 1 mM DTT, 4 °C, 3 h; WB with anti-FLAG

Substance “ubiquitinated FLAG-H3 (from UniProt P0CG48 1-76)” has a fold enrichment of the ubiquitinated histone in the pull-down of 20 fold.

“ubiquitinated FLAG-H2B (from UniProt P0CG48 1-76)” was tested, and the fold enrichment of the ubiquitinated histone in the pull-down was 4.9 fold.
